From doi:10.1101/340026
Like-named read-outs stand apart in the source and are kept apart here. Values belong to the molecule of their own block, whether it stands above or below them.

Columns and labels:
[1] = molecular target: soluble porcine αβ-tubulin (porcine) (UniProt P02550); assay: ITC
[2] = molecular target: soluble porcine αβ-tubulin (porcine) (UniProt P02550); assay: SEC + SEC-MALS
[3] = molecular target: αβ-tubulin:DRP complex (1:1 molar ratio) (porcine) (UniProt P02550); assay: ITC
[4] = molecular target: αβ-tubulin:DRP complex (1:1 molar ratio) (porcine) (UniProt P02550); assay: ITC; remark: listed apart in the source
[5] = molecular target: soluble porcine αβ-tubulin (porcine) (UniProt P02550); assay: SEC + SEC-MALS; remark: listed apart in the source

Molecule: DRP with the N-terminal ankyrin repeat removed (DRPΔN) (designed binder)
- Kd [1]: 461 nM

Molecule: designer ankyrin repeat protein, Darpin-D1 (DRP) (designed binder)
- stoichiometry N [2]: 1
- Kd [1]: 149 nM

B4: dimeric S. pombe Alp14 TOG array (residues 1-690) (domain or fragment)
chain: MSQDQEEDYSKLPLESRIVHKVWKVRLSAYEECSKSFSLSADGSDNCFELWNNQSELWKSVLTDSNVAAQEAGTAAFVAYCRFSDPSHLLKAREISVLSISEKCLTSPRAGTRENALEALMLLVEADSAAPVIESIIPSLSARSPKVIASNVAAIASLVEQFGAKVIPSKMIIPHISNLFGHADKNVRKEASRLTVNIYRWTGDPLKDLLFKDLRPVQTKELESLFAELPTEPPKQTRFLKSQQPTSEPNVETQVEEQPALENEESEPEPSDDQFDLVEEVDVLPNVDPNLETLMASSKWKDRKEALDKLLPVLSQPKIKDNDFFNLVAILTKSVSKDANIMVVINAAHCIQAMAKGLRSNFSKYASTSINALLERSKEKKANVIESLSSAMDAVLATSSLDDLAELIASFAGNKNPQIKSSCFSLFSRSFSNMTSLPSKFTVDTCAKACVPGVSDTFEPVRSAAAEALGVLMKLVGERAINQYLSPLDDIRKSKIRSFYETATVKAKAPTKKSKVKPSKQEESKVVVPSNAKAVKKSVVPSSPVVPSPRKATNKSLSMDVSKGNAFENGPLLPRPTTRPVSRGLSRGTSSSLQQKVKASTPLNSGALNETVQNLKNMELDDPAPQPAKHSRVDRYEHPKVLEDNDSTISSLESLKRENEELREQLKVEHEENISMQKQLSELKGELNTL
- stoichiometry N [2]: 4
- stoichiometry N [5]: 4

Second part, the molecule after the results:

- Kd [3]: 173 nM
- Kd [4]: 3250 nM
B1: isolated TOG2 (residues 320-510) (domain or fragment)
chain: KDNDFFNLVAILTKSVSKDANIMVVINAAHCIQAMAKGLRSNFSKYASTSINALLERSKEKKANVIESLSSAMDAVLATSSLDDLAELIASFAGNKNPQIKSSCFSLFSRSFSNMTSLPSKFTVDTCAKACVPGVSDTFEPVRSAAAEALGVLMKLVGERAINQYLSPLDDIRKSKIRSFYETATVKAKAP

- Kd [3]: 70 nM
- Kd [4]: 1500 nM
B2: isolated TOG1 (residues 1-270) (domain or fragment)
chain: MSQDQEEDYSKLPLESRIVHKVWKVRLSAYEECSKSFSLSADGSDNCFELWNNQSELWKSVLTDSNVAAQEAGTAAFVAYCRFSDPSHLLKAREISVLSISEKCLTSPRAGTRENALEALMLLVEADSAAPVIESIIPSLSARSPKVIASNVAAIASLVEQFGAKVIPSKMIIPHISNLFGHADKNVRKEASRLTVNIYRWTGDPLKDLLFKDLRPVQTKELESLFAELPTEPPKQTRFLKSQQPTSEPNVETQVEEQPALENEESEPEP

- stoichiometry N [2]: 2
- stoichiometry N [5]: 2
B3: monomeric S. pombe Alp14 TOG1-TOG2 array (residues 1-510) (domain or fragment)
chain: MSQDQEEDYSKLPLESRIVHKVWKVRLSAYEECSKSFSLSADGSDNCFELWNNQSELWKSVLTDSNVAAQEAGTAAFVAYCRFSDPSHLLKAREISVLSISEKCLTSPRAGTRENALEALMLLVEADSAAPVIESIIPSLSARSPKVIASNVAAIASLVEQFGAKVIPSKMIIPHISNLFGHADKNVRKEASRLTVNIYRWTGDPLKDLLFKDLRPVQTKELESLFAELPTEPPKQTRFLKSQQPTSEPNVETQVEEQPALENEESEPEPSDDQFDLVEEVDVLPNVDPNLETLMASSKWKDRKEALDKLLPVLSQPKIKDNDFFNLVAILTKSVSKDANIMVVINAAHCIQAMAKGLRSNFSKYASTSINALLERSKEKKANVIESLSSAMDAVLATSSLDDLAELIASFAGNKNPQIKSSCFSLFSRSFSNMTSLPSKFTVDTCAKACVPGVSDTFEPVRSAAAEALGVLMKLVGERAINQYLSPLDDIRKSKIRSFYETATVKAKAP
